Test results published in paper PMC12774660 (Nucleic Acids Research, 2026).

Biological target: T1, CPSF73 (human, UniProt Q9UKF6 1-684)
T1 sequence: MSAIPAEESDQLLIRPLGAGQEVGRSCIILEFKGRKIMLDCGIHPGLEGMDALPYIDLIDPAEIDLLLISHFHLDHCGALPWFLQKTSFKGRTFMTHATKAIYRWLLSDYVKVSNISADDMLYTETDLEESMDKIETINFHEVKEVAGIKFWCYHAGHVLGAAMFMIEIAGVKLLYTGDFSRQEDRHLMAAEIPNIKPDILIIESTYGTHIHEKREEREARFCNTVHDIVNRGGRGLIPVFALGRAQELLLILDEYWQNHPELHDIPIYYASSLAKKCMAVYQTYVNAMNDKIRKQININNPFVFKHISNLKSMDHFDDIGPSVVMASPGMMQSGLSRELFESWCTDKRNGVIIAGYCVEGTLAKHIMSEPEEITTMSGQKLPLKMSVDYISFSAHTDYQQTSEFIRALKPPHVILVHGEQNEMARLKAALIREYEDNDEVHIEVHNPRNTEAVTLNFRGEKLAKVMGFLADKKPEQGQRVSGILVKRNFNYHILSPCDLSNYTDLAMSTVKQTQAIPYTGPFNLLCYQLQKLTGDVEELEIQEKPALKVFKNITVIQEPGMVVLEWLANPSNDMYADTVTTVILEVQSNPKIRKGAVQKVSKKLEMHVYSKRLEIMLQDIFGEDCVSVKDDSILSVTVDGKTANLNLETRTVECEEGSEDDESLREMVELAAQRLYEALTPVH
Experiment: cell-based or functional assay

B1: Lsm11 R109E/I110A/R112E/L113A/R114E/L116A (natural protein, human, UniProt P83369 1-360, looked up)
chain: MEERERGARSAGAGSPARPPSPRLDVSSDSFDPLLALYAPRLPPIPYPNAPCFNNVAEYESFLRTGVRGGGRGRGRARGAAAGSGVPAAPGPSGRTRRRPDAPAPDPEEAQEAERAMVAKEEGDGAAGAGRRGPGRSRKAPRNVLTRMPLHEGSPLGELHRCIREGVKVNVHIRTFKGLRGVCTGFLVAFDKFWNMALTDVDETYRKPVLGKAYERDSSLTLTRLFDRLKLQDSSKKEADSKSAVEDSTLSRYSQTSTWKLASVWGRADTGRGSHKRSRSVPSSLQASAREESRSELSGRTTRTDGSSVGGTFSRATTLSRGQSRKKKRKPKVDYQQVFTRHINQIFIRGENVLLVHLAQ
cleavage activity of the U7 snRNP with sextuple mutant Lsm11 toward the H2a* substrate, compared to the wild-type, in the absence of SLBP: ~3 fold lower
